± gives the standard deviation of the averaged measurements.

The series deals with Saccharomyces cerevisiae. Briefly: protein stability index of tFT-peptide fusion (C-terminal peptide) (PSI (0-1 scale)); higher = more stable (slower turnover). The conditions noted are these: temperature: 30 C. On the procedure:
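MPS profiling in S. cerevisiae of the yeast C-terminome library: the last 12 aa of each annotated ORF are fused to the C-terminus of a sfGFP-mCherry timer, after a GGGS linker. Cells are FACS-sorted into 8 mCherry/sfGFP bins and deep-sequenced. PSI runs from 0 (unstable) to 1 (stable); wild type and das1Δ backgrounds, two technical replicates each.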

Where [1] appears, read: genetic background: das1 deletion.

As to KSARSWVRSGRL [YPR053C C-terminal 12 aa], the protein stability index was 0.80266 ± 0.00042 under setting [1] and 0.77 ± 0.013 (genetic background: wild type).
For KSCDEDGQEDEA [TPA1 C-terminal 12 aa], in that order: 0.693 ± 0.014 and 0.642 ± 0.011.
For KSDLISNIRQKI [RBH1 C-terminal 12 aa], the protein stability index came out at 0.716 ± 0.035 under setting [1] and 0.638 ± 0.037 (genetic background: wild type).
Turning to KSLRSSFGKKLI [PHS1 C-terminal 12 aa], the protein stability index stood at 0.706 ± 0.052 under setting [1] and 0.717 ± 0.046 (genetic background: wild type).
For KTFINNVINVYH [FRM2 C-terminal 12 aa], in that order: 0.6589 ± 0.006 and 0.674 ± 0.018.
For KTHTEYGYVMVA [YGR137W C-terminal 12 aa], in that order: 0.618 ± 0.012 and 0.5401 ± 0.0042.
As to KTSLKITHRRVI [YGL117W C-terminal 12 aa], the protein stability index worked out at 0.7424 ± 0.0067 under setting [1] and 0.658 ± 0.0094 (genetic background: wild type).
The sequence KVSPAAAAKKAL [RPS26B C-terminal 12 aa] returned a protein stability index under setting [1] of 0.684 ± 0.0089 and a protein stability index (genetic background: wild type) of 0.6696 ± 0.00082.
For KVWVAGQQVYQI [GUD1 C-terminal 12 aa], in that order: 0.697 ± 0.012 and 0.6639 ± 0.0028.
With KWGMEDSPPPYH [MDM34 C-terminal 12 aa], the protein stability index reads like this: under setting [1], 0.734 ± 0.028; (genetic background: wild type) 0.6942 ± 0.0043.
For “KYCRVPLPENNR [YEL008C-A C-terminal 12 aa]”, in that order: 0.709 ± 0.015 and 0.677 ± 0.068.
For KYFCDFLLDPEI [ECM14 C-terminal 12 aa], in that order: 0.741 ± 0.0083 and 0.719 ± 0.01.
For LANFSNEVAMNN [SWP82 C-terminal 12 aa], in that order: 0.696 ± 0.017 and 0.738 ± 0.13.
LARTDVNFMPWF [TRA1 C-terminal 12 aa] had a protein stability index under setting [1] of 0.72 ± 0.0086 and a protein stability index (genetic background: wild type) of 0.744 ± 0.031.
LCFSKDIQLDFQ [FIG4 C-terminal 12 aa] gave a protein stability index under setting [1] of 0.714 ± 0.013 and a protein stability index (genetic background: wild type) of 0.672 ± 0.043.
As to LDKIKTDDTYTS [FYV7 C-terminal 12 aa], the protein stability index by setting is: under setting [1], 0.7 ± 0.024; (genetic background: wild type) 0.6966 ± 0.0045.
For LDLQNQNKKNLW [PIN4 C-terminal 12 aa], in that order: 0.707 ± 0.02 and 0.707 ± 0.023.
Consider LEDQDGSLYLNY [PFU1 C-terminal 12 aa], for which the protein stability index reads like this: under setting [1], 0.712 ± 0.011; (genetic background: wild type) 0.662 ± 0.025.
For LEHMLEGKEQDE [PRM5 C-terminal 12 aa], in that order: 0.707 ± 0.025 and 0.751 ± 0.036.
For LEHYSLSTFVCC [YAL045C C-terminal 12 aa], in that order: 0.326 ± 0.032 and 0.3476 ± 0.0029.
For LESTHDKAIAGK [MNN2 C-terminal 12 aa], in that order: 0.6974 ± 0.0069 and 0.684 ± 0.021.
Regarding LETAFEEWDYYE [MRX6 C-terminal 12 aa], the protein stability index under setting [1] was found to be 0.731 ± 0.016 and the protein stability index (genetic background: wild type) is 0.787 ± 0.064.
For LFGTCLVAMLLF [SPS22 C-terminal 12 aa], in that order: 0.461 ± 0.023 and 0.449 ± 0.022.
For LFMNAVIKTFKK [DGK1 C-terminal 12 aa], in that order: 0.7 ± 0.0083 and 0.6997 ± 0.0014.
With LFQALKLEWEII [TEP1 C-terminal 12 aa], the protein stability index under setting [1] turned out to be 0.7038 ± 0.0018 and the protein stability index (genetic background: wild type) is 0.69 ± 0.037.
In the case of LGDIYTLTNNEL [PHO13 C-terminal 12 aa], the protein stability index amounted to 0.701 ± 0.01 under setting [1] and 0.6802 ± 0.00082 (genetic background: wild type).
For LGDSPSQGRSIS [YPK2 C-terminal 12 aa], in that order: 0.685 ± 0.012 and 0.688 ± 0.024.
Take LGFYYIYTLHRA [ERG9 C-terminal 12 aa]: the protein stability index turned out to be 0.505 ± 0.045 under setting [1] and 0.498 ± 0.03 (genetic background: wild type).
For LHPFREPAKINI [YDR048C C-terminal 12 aa], in that order: 0.665 ± 0.024 and 0.701 ± 0.054.
LIIRNLNAEKER [YFR056C C-terminal 12 aa]: the protein stability index is, setting by setting: under setting [1], 0.6974 ± 0.0041; (genetic background: wild type) 0.686 ± 0.039.
Regarding LITMIRFVNSQK [DCG1 C-terminal 12 aa], the protein stability index was 0.677 ± 0.044 under setting [1] and 0.673 ± 0.034 (genetic background: wild type).
For LKAVCPPEAGFD [VEL1 C-terminal 12 aa], in that order: 0.7312 ± 0.0018 and 0.772 ± 0.019.
For LKIVEKIIASEQ [YLR419W C-terminal 12 aa], in that order: 0.683 ± 0.013 and 0.711 ± 0.029.
As for LKMDKLGNYILE [RIO2 C-terminal 12 aa], the protein stability index reads like this: under setting [1], 0.717 ± 0.027; (genetic background: wild type) 0.65 ± 0.043.
For LKYCKRRHNTPS [GCR1 C-terminal 12 aa], in that order: 0.747 ± 0.0077 and 0.736 ± 0.021.
LLAKKKLKPNLL [YGR293C C-terminal 12 aa] came in with a protein stability index under setting [1] of 0.714 ± 0.028 and a protein stability index (genetic background: wild type) of 0.7 ± 0.04.
For LLASCIETTRNK [LOT6 C-terminal 12 aa], in that order: 0.691 ± 0.008 and 0.667 ± 0.027.
For LLEDIRANYSLN [YLL056C C-terminal 12 aa], in that order: 0.681 ± 0.012 and 0.692 ± 0.028.
For LLGFTTGKEVHL [SMF2 C-terminal 12 aa], in that order: 0.6939 ± 0.0046 and 0.701 ± 0.014.
With “LLLSAFLRNLVP [YAL016C-A C-terminal 12 aa]”, the protein stability index under setting [1] was determined as 0.685 ± 0.026 and the protein stability index (genetic background: wild type) came to 0.375 ± 0.0073.
Regarding LLRKLSMKRPFS [APL1 C-terminal 12 aa], the protein stability index by setting is: under setting [1], 0.683 ± 0.016; (genetic background: wild type) 0.682 ± 0.047.
For LNIGGNLVTPLC [YSH1 C-terminal 12 aa], in that order: 0.719 ± 0.011 and 0.671 ± 0.037.
Turning to LNNKDTKSVRHA [BRR6 C-terminal 12 aa], the protein stability index was determined as 0.667 ± 0.029 under setting [1] and 0.711 ± 0.026 (genetic background: wild type).
For the sequence “LPFSVEPTTSRM [YFR036W-A C-terminal 12 aa]”, the protein stability index runs as follows: under setting [1], 0.6999 ± 0.0065; (genetic background: wild type) 0.687 ± 0.017.
For LPGINSIFKNIF [TOD6 C-terminal 12 aa], in that order: 0.774 ± 0.016 and 0.722 ± 0.063.
For LPLKLTRKVHDR [RIF2 C-terminal 12 aa], in that order: 0.705 ± 0.05 and 0.713 ± 0.012.
For LPSINTIFKDML [DOT6 C-terminal 12 aa], in that order: 0.702 ± 0.03 and 0.731 ± 0.059.
As to LQEPDRDNDDSG [NTC20 C-terminal 12 aa], the protein stability index under setting [1] amounted to 0.701 ± 0.013 and the protein stability index (genetic background: wild type) amounted to 0.7 ± 0.017.
For LQLFVNLGCPLS [YDR455C C-terminal 12 aa], in that order: 0.727 ± 0.028 and 0.683 ± 0.019.
LQNNDVTIGFAK [MUD1 C-terminal 12 aa]: the protein stability index runs as follows: under setting [1], 0.715 ± 0.0077; (genetic background: wild type) 0.655 ± 0.02.
For LQPDVPPSSGRS [KEX2 C-terminal 12 aa], in that order: 0.695 ± 0.033 and 0.703 ± 0.011.
For LQPWEGRLYLLK [IMA5 C-terminal 12 aa], the protein stability index was 0.698 ± 0.048 under setting [1] and 0.693 ± 0.063 (genetic background: wild type).
Take LRFEEMNSDLVQ [ROG1 C-terminal 12 aa]: the protein stability index was found to be 0.705 ± 0.0096 under setting [1] and 0.747 ± 0.12 (genetic background: wild type).
For LRRSFAIYTLGH [MCM2 C-terminal 12 aa], in that order: 0.647 ± 0.027 and 0.6562 ± 0.0043.
The sequence LRVEWSKPKVKE [TIF35 C-terminal 12 aa] registered a protein stability index under setting [1] of 0.699 ± 0.015 and a protein stability index (genetic background: wild type) of 0.711 ± 0.044.
In the case of LSDDEEEEEEEE [RIX1 C-terminal 12 aa], the protein stability index is, setting by setting: under setting [1], 0.648 ± 0.048; (genetic background: wild type) 0.645 ± 0.033.
LSEEDLLDDESS [YPF1 C-terminal 12 aa] came in with a protein stability index under setting [1] of 0.669 ± 0.042 and a protein stability index (genetic background: wild type) of 0.698 ± 0.0078.
For LSGAPQVTKKQN [POM33 C-terminal 12 aa], in that order: 0.691 ± 0.013 and 0.674 ± 0.016.
Turning to LSHAQKEIYEFK [UTP25 C-terminal 12 aa], the protein stability index reads like this: under setting [1], 0.687 ± 0.011; (genetic background: wild type) 0.691 ± 0.056.
Turning to LSQFSNVRYLLQ [VPS70 C-terminal 12 aa], the protein stability index is 0.7367 ± 0.0022 under setting [1] and 0.545 ± 0.0054 (genetic background: wild type).
For LSQWVSQMPFPM [LRO1 C-terminal 12 aa], in that order: 0.79828 ± 0.00044 and 0.8015 ± 0.0025.
In turn, LTEMSAKISFED [AAD10 C-terminal 12 aa] displayed a protein stability index under setting [1] of 0.717 ± 0.019 and a protein stability index (genetic background: wild type) of 0.779 ± 0.011.
LTHQSLLATARK [KIP3 C-terminal 12 aa]: the protein stability index is 0.6931 ± 0.0014 under setting [1] and 0.6879 ± 0.00097 (genetic background: wild type).
Take LTLIPILFGKLQ [YNL203C C-terminal 12 aa]: the protein stability index worked out at 0.6875 ± 0.0045 under setting [1] and 0.354 ± 0.0097 (genetic background: wild type).
Take LTSIWKTILFFK [YEL076C C-terminal 12 aa]: the protein stability index by setting is: under setting [1], 0.41 ± 0.014; (genetic background: wild type) 0.468 ± 0.061.
For LTSYINVHLVYV [YNL285W C-terminal 12 aa], in that order: 0.301 ± 0.016 and 0.325 ± 0.0042.
With LVAEATKKKRHT [DJP1 C-terminal 12 aa], the protein stability index by setting is: under setting [1], 0.7115 ± 0.0067; (genetic background: wild type) 0.6936 ± 0.0052.

For the origin of these results see the supplement of paper PMC10724198.
